# According to paper PMC4046962:
# Target: SiaM (Streptomyces sp. A7248)
# Assay: small-angle X-ray scattering (SAXS); SiaM in 10 mM Na2HPO4, 1.8 mM KH2PO4, 400 mM Na2SO4, pH 8.3, 4°C; curves of monomer, two dimers and tetramer fitted with CRYSOL; mixture analysed with OLIGOMER
substance,measurement,value
SiaM (enzyme),stoichiometry N,4
